Experimental data reported in patent US9688732B2, “Extracellular matrix metalloproteinase inducer (EMMPRIN) peptides and binding antibodies” (Rappaport Family Institute for Research in the Medical …, priority 2012, dated 2017).

Target: T1, Mouse recombinant EMMPRIN (mrEMMPRIN) (Mus musculus, UniProt P18572)
T1 construct: mrEMMPRIN is a chimeric protein composed of the extracellular portion of EMMPRIN fused to the Fc portion of human IgG; purchased R&D Systems
Test: Indirect ELISA, specificity of the antibodies to EMMPRIN
Conditions: mrEMMPRIN 200 ng/ml coat; OD of Fc binding subtracted; n=4
Description: Indirect ELISA: This assay was developed to determine the specificity of the polyclonal antibodies for the EMMPRIN protein. Mouse recombinant EMMPRIN (mrEMMPRIN, 200 ng/ml in PBS, R&D Systems) or the Fc portion of the human IgG were applied on wells of a 96-well plate and incubated at 4° C. overnight to coat the wells. Excess antigens were removed by washing three times with wash buffer (0.05% Tween-20 in PBS), followed by blocking of the remaining free protein-binding sites with blocking buffer (1% BSA in PBS) for 2 hours at room temperature. After additional washes, strips of mouse recombinant EMMPRIN or Fc were coated with each of the primary antibodies (immune or pre-immune sera) diluted 1:500 and 1:5000 in PBS, and incubated for 2 hours at room temperature. […] The reaction was stopped with stop solution (0.25M HCL), and the absorbance of each well was measured at 450 nm and at a reference of 540 nm. […]
The specificity and ability of the antibodies to recognize mrEMMPRIN in its native structure were also tested by indirect ELISA, using mrEMMPRIN (200 ng/ml) or human IgG Fc protein (hFC, 200 ng/ml) to coat 96-well plates. […] P values were calculated by the Mann-Whitney T test. **, p<0.01, relative to pre-immune sera. […]

T1 sequence (P18572 with tags, fused parts or gaps isoform P18572-2 limits assumed): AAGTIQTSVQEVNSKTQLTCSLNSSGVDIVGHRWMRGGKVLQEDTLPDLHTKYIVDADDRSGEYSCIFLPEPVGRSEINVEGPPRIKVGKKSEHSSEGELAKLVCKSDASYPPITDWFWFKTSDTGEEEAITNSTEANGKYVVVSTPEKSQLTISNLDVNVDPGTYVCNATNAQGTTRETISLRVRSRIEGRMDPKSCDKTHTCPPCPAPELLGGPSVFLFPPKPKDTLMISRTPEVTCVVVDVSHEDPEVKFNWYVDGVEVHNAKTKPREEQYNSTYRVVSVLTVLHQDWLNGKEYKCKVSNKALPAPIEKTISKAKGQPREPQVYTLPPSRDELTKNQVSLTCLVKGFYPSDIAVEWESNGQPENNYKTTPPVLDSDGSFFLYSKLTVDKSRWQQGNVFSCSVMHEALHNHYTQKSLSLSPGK

GHRWMRGGKVLC [Peptide 161, 12aa peptide from the EC-I domain of mouse EMMPRIN]
Immune sera (OD values, indirect ELISA): 0.052 ± 0.026
